Measurements reported in US20110280859A1 (UNIVERSITY OF ROCHESTER, published 2011).

Experiments:
[1] = molecular target: β1 integrins on human neutrophils (human, UniProt P05556 21-798); test: cell-based or functional assay
[2] = molecular target: β3 integrins on human neutrophils (human, UniProt P05106 27-788); test: cell-based or functional assay
β3 integrins on human neutrophils, sequence (P05106 27-788): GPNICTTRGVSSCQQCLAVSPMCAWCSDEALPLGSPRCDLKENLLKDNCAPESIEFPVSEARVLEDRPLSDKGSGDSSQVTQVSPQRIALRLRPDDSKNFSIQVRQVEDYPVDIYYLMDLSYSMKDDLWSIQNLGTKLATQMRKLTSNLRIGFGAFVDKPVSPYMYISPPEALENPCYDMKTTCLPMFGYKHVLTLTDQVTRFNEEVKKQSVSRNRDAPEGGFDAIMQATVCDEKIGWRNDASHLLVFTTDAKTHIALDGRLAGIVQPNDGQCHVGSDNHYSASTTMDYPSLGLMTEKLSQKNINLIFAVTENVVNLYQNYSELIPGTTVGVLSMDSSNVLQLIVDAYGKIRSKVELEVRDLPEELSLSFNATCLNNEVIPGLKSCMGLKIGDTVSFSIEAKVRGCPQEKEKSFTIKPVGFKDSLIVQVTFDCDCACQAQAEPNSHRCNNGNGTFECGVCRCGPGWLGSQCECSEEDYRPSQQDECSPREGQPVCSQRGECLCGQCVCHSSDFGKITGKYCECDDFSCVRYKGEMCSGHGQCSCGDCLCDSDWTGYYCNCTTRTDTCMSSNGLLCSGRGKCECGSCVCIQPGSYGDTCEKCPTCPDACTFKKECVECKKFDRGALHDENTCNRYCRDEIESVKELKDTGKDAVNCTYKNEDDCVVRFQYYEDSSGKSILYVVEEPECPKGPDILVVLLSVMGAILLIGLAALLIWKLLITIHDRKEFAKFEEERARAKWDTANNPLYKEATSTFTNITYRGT

β1 integrins on human neutrophils, sequence (P05556 21-798): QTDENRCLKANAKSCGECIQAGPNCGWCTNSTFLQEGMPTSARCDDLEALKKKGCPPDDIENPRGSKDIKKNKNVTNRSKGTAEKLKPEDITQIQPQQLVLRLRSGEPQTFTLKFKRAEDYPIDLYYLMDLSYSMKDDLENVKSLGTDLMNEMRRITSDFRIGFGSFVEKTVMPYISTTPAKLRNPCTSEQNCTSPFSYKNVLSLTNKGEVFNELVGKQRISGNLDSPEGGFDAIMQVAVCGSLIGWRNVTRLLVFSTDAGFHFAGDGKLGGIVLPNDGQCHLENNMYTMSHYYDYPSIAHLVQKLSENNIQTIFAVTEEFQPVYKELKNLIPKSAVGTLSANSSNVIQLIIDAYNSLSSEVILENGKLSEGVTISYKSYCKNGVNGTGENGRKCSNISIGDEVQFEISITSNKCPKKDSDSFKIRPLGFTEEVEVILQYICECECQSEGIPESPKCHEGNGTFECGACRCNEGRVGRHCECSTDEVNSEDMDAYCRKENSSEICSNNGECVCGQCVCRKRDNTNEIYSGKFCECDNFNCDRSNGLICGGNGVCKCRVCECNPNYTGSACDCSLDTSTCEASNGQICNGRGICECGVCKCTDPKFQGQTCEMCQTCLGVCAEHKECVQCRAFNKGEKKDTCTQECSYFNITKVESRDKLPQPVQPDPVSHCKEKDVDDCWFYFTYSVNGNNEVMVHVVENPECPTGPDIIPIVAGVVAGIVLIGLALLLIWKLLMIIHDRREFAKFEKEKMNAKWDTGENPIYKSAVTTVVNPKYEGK

B1: Recombinant human activated protein C (enzyme)
chain 1: ANSFLEELRHSSLERECIEEICDFEEAKEIFQNVDDTLAFWSKHVDGDQCLVLPLEHPCASLCCGHGTCIDGIGSFSCDCRSGWEGRFCQREVSFLNCSLDNGGCTHYCLEEVGWRRCSCAPGYKLGDDLLQCHPAVKFPCGRPWKRMEKKRSHL
chain 2: LIDGKMTRRGDSPWQVVLLDSKKKLACGAVLIHPSWVLTAAHCMDESKKLLVRLGEYDLRRWEKWELDLDIKEVFVHPNYSKSTTDNDIALLHLAQPATLSQTIVPICLPDSGLAERELNQAGQETLVTGWGYHSSREKEAKRNRTFVLNFIKIPVVPHNECSEVMSNMVSENMLCAGILGDRQDACEGDSGGPMVASFHGTWFLVGLVSWGEGCGLLHNYGVYTKVSRYLDWIHGHIRDKEAPQKSWAP
B1 was tested. Which “average lateral migration speed (S) of neutrophils on FN toward fMLP, micropipette assay” value [1] did it give?
Its value is 2.5 fold.

And the “average lateral migration speed (S) of neutrophils on FN toward fMLP, micropipette assay” value [2]?
The value was 2.5 fold.
